# According to patent US20190381171A1, “CO-USE OF ANTI-BCMA ANTIBODY AND ANTIBODY-COUPLED T CELL RECEPTOR (ACTR) IN CANCER THERAPY AND B CELL DISORDERS” (UNUM THERAPEUTICS INC., priority 2017, published 2019):
# Legend:
# NCI-H929 target cells [1] = assay: Activation markers (CD25, CD69) on ACTR T-cells by flow cytometry; type: cell-based, human; conditions: ACTR variant SEQ ID NO: 1, E:T 1:1, 1 μg/mL antibody, 24 hours
# Method: T-cells (effector; E) and target cells (target; T) were incubated at a 1:1, effector-to-target ratio (30,000 T cells; 30,000 target cells) with 1 μg/mL of anti-BCMA antibodies in a 200-μL reaction volume in RPMI 1640 media supplemented with 10% fetal bovine serum. Reactions were incubated in a CO2 (5%) incubator at 37 degrees C. for 24 hours. Geometric Mean Fluorescence intensity (gMFI) of two activation markers, CD25 and CD69 were determined in the total CD3+ CD16+ ACTR T-cell gate via flow cytometry. Briefly, cells were washed twice in staining buffer before being stained with a Live/Dead eFluor-450 dye for 30 min at 4 degrees C. After incubating in the live/dead cell stain, cells were washed twice and incubated with 100 μL of an antibody cocktail consisting of AF488-conjugated anti-human CD3 antibody, APC-conjugated anti-human CD16 antibody, PerCP-Cy5.5-conjugated anti-human CD25 antibody, and BV510-conjugated anti-human CD69 antibody. Subsequently, cells were washed twice, fixed, permeabilized, and stained for intracellular molecules prior to detection via flow cytometry. […]
# T-cells (effector; E) and NCI-H929 target cells (target; T) were incubated at varying effector-to-target ratios in the presence of 1 μg/mL hSG16.17 SEA antibody. […] The geometric mean fluorescence intensity of CD25 was calculated within the CD3+ T-cell gate and was plotted as a function of E:T ratio (FIG. 17).
# NCI-H929 target cells [2] = assay: ACTR T-cell cytokine release (IFNγ, IL2; Meso Scale Discovery) in co-culture with target cells and antibody; type: cell-based, human; conditions: T-cells expressing ACTR variant SEQ ID NO: 1, E:T 4:1, 24 hours, increasing antibody concentration (FIG. 4 chimeric, FIG. 9 humanized)
# Method: T-cells expressing ACTR variant SEQ ID NO: 1 (effector; E) and target cells (target; T) were incubated at a 4:1, effector-to-target ratio (120,000 T cells; 30,000 target cells) with increasing concentrations of various chimeric antibodies in a 200-μL reaction volume in RPMI 1640 media supplemented with 10% fetal bovine serum. In FIG. 4, the chimeric antibodies included fucosylated and afucosylated (SEA) versions of the SG16.17 and SG16.45 anti-BCMA antibodies at a concentration range of 100-0.0005 μg/mL. In FIG. 9, humanized afucosylated (SEA) SG16.17 antibody was used at a concentration range of 3.8-0.002 μg/mL. […] Supernatants were subsequently analyzed for IFNγ and IL2 using the Meso Scale Discovery V-Plex Human IFN-γ Kit (K151QOD-4) and V-Plex Human IL-2 Kit (K151QQD-4). Briefly, the Proinflammatory Calibrator Blend, Detection Antibody Solution, and Read Buffer were prepared according to manufacturer protocols. […] Read Buffer (150 μL) was added to the plate and the plates were run on the MSD Quickplex SQ 120.
# For these experiments, BCMA+ HER2− NCI− H929 and BCMA− HER2+ SKBR3 target cells were used. […] Supernatants were subsequently analyzed for IFNγ using the Meso Scale Discovery V-Plex Human IFN-γ Kit (K151QOD-4). Briefly, the Proinflammatory Calibrator Blend, Detection Antibody Solution, and Read Buffer were prepared according to manufacturer protocols. […]
molecule,measurement,setting,value
"cSG16.45SEA: afucosylated (SEA) version of the chimeric SG16.45 anti-BCMA antibody (antibody, V domains shown) VH: EVQLVESGGGLVQPGRSLKLSCVASGFTFNDHWMTWIRQAPGRGLEWISSITNTGGATYYLDSVKGRFTISRDNAKSTLYLQMNSLRSEDTATYYCTSPGLYFDYWGQGVMVTVSS VL: EIVLTQSPTTTAASPGEKVTITCLATSSVSVMYWYQHKSGASPKLLIYSTSSLASGVPDRFSGSGSGTSYSLTINTMEAEDAATYYCHQWSSDPPTFGSGTKLEIKR",levels of activation markers CD25 and CD69 (gMFI) on ACTR T-cells,NCI-H929 target cells [1],enhanced expression of CD25 and CD69 when compared to incubations with their fucosylated counterparts
same,ACTR T-cell IFNγ and IL2 release,NCI-H929 target cells [2],increased potency in cytokine release when compared to their fucosylated counterparts
